Measurements taken from the nanobody polyreactivity screen of Harvey et al. (2022).

test: yeast display, Sf9 membrane polyspecificity reagent, FACS + sequencing; frameworks hold sequencing errors
How it was run: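 In a synthetic yeast display library (Saccharomyces cerevisiae BJ5465), nanobody expression was induced with galactose for 36–48 hours. FACS gates were set low and high (top ~1%) using anti-HA fluorescence for expression and streptavidin fluorescence for binding of the Sf9 membrane reagent. Each polyreactivity label is drawn from the gate of origin.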

Sequence	polyreactivity (PSR sort gate)
QVHLVESGGGLVQAGGSLRLSCAASGYIFTIYAMGWYRQAPGKERELVAAITSGGSTSYADSVKGRFTISRDNAKNTVYLQMNSLKPVDTAVYYCAAASVYAGLYYLWVYTGYDYWGQGTQVTVSS	high polyreactivity
QVHLVESGGGLVQAGGSLRLSCAASGYIFYAIAMGWYRQAPGKERELVAAISTGGNTNYADSVKGRFTISRDNAKNTVYVQMNSLKPEDTAVYYCAVRSTGPYRWRTPVTRDYWGQGTQVTVSS	low polyreactivity
QVHLVESGGGLVQAGGSLRLSCAASVRTYRGNAMGWYRQAPGKEREMVAAITYRTGSTYYADSVKGRFTISRDNAKNTVYLLMNSLKPEDTAVYYCAAVSGRSYDKYYYWGQGTQVTVSS	high polyreactivity
QVHLVESGGGLVQAGGSLRLSCAATGRTLTCNARGWYRQAPGKERELVPAISRSGGGSTYYADSVKGRFTISRDTAKNTVYIQMISLKPEDTAVYYCAARYRVHYYWYPMGYWGQGTQVTVSS	high polyreactivity
QVHLVESGGGLVQAGGSLRLSCAAYGIIFNSNAMGWYRQAPGKERELVAAISVSGGSTYYADSVKGRFTISRDNAKNTVYLQMNSLKPEDTAVYFCAARTGRGDRTRRYYYWGQGTKVTVSS	high polyreactivity
QVHLVESGGGLVQAGGSLRLSCAAYGRNFQYNAMGWDRQAPGKEREFVASISGSGGRTYYADSVKGRFTISRDNAKNTVYLQMNSLKPEDTAVYYCNASLLFPLLYGPESGEFDYWGQGSQVTVSS	low polyreactivity
QVHLVESGGGLVQAGGSLRLSCAAYGSTFTWYARGWYRQAPGKERELVADISYGGGSTYYADSVKGRFTISRDNAKNTVYLQMNSLKPEDTAVYYCAAESIPYYRYDYWGQGSQVTVSS	low polyreactivity
QVHLVESGGGLVQAGGSLRLSCADSGSTFKNYAMGWYRPAPGKERELVATITKRGGSTYYADSVKGRFTISRDNAKNTVYLQMKSMKPEDTAVYYCAAAPNGPRYRDRFDYWGQGNQVTVSS	high polyreactivity
QVHLVESGGGLVQAGGSLRLSCAPSGSIFRNYAMGWYRQAPGKESELVATISGRGGRTYYEDSVKGRFTISRDNAKNTVYLQMNSLKPEDTAVYYCAARGTLGKYSTASVYSGQGTQVTVSS	high polyreactivity
QVHLVESGGGLVQAGGSLRLSCASSGTTFRYYAMGCYRQAPGKERELVAAITYRGGRTYYADSVKGRFTISRDNPKNTVYLQMNSLKPEDTAVYYCAGKSGGDSMDSWGQGTQVTVSS	low polyreactivity
QVHLVESGGGLVQAGGSLRLSCDASGLTFANNAMGWYRQAPGKEREFVAAIRGSGGSTYYADSVKGRFTISRDNAKNTVYLQMNSLKPEDTAVYYCNAGYLRKYHGWFQVKFDYWGQGTQVTVSS	low polyreactivity
QVHLVESGGGLVQAGGSLRLSCDASGSTFGYYAMGWYRQAPGKERELVAAISWNGVSTYYADSVKGRFTISRDNAKNTVYLQMNCLKPEDTAVYYCATVGLRRLFVNPGTLMDYWGEGTQVTVSS	low polyreactivity
QVHLVESGGGLVQAGGSLRLSCPASGRTLDSNAMGWYRQAPGKERELVAAISSAGSTNYADSVKGRFTISRDNAKNTVYLQMNSLKPEDTAVYYCAADLIGSHDYWGQGTQVTVSS	low polyreactivity
QVHLVESGGGLVQAGGSLRLSCYASGRIFRYYAMGWYRQPPGKERELVAVINCSGGSTYYAVSVKGRFTISRDNAKNSVYLQMNSLKPEDTAVYYCYVYSVYPQFNYWGQGTQVTVSS	high polyreactivity
QVHLVESGGGLVQAGGSLRLSGAASGFTFYRYAMGWSRQAPGKERELVAAITSGAITYYADSVKGRFTISRDNAKNTVYLQMNSLKPEETAVYYCNAVYRVAAIVRYDYWGQGTQVTVSS	high polyreactivity
QVHLVESGGGLVQAGGSLRLSSAASGRIFDRYAMGWYRQAPGKERELVAAITSRADRTYYADSLKGRFTISRDNAKNTVYLQMNSLKPEDTAVYYCNTDKKYRHRYGGILDYWGQGTEVTVSS	high polyreactivity
QVHLVESGGGLVQAGGSLRLSSAASGRIFYNYTMRWYRQAPGKERELVAAITRSGSSTYADSVKGRFTISRDNGKNTVYLQMNSLKQEDTAVYYCAGEYIRRYDYWGQGTQETVSS	low polyreactivity
QVHLVESGGGLVQAGGSLRLSSAPSGSTFDAYDMGWYRQAPGKESELVAAITSGGSTNYADSVKGRFTISRDNAKNTVYLQMNSLKPEDTAVYYCAASPYRGFVSRYGYWGQGTQVTLSS	low polyreactivity
QVHLVESGGGLVQAGGSLRLTCAASGFTFHQYAMGWYRQAPGKERELVAAISQSGDSTYYADSVKGRFTISRDNSKNTVYLQMNSLKQEYTAVYYFNADNDGVVWSDPFDFDYWGQGTQVTVSS	low polyreactivity
QVHLVESGGGLVQAGGSLRLTCAASGFTYPGNAMGWYRQAPGKERELVATINWSGTSTYYADSVKGRFTISRDYAKNTVYLQMNSLKPEDTAVYYCAVDTGGPGYRFDYWGQGTQVTVSS	high polyreactivity
QVHLVESGGGLVQAGGSLRLTCAASGLIFYDNMGWYRQAPGKERELVAAISSSGGSTSYADSVKGRFTISRDNAKNTVYLQMTSLKPVDTAVYYCAADSYPAYLGFVGFDYWGKGTQVTVSS	low polyreactivity

Sequence	polyreactivity (PSR sort gate)
QVHLVESGGGLVQAGGSLRLTCAASGRIFTSYVMGRSRQAPGQVRDLVAAITRSGGSTYYADSVKGRFTISRDNAKNTVYLQMNSLKPEDTAVYYCNALTRRQNGGEGGGYWGQGTHVTVSS	high polyreactivity
QVHLVESGGGLVQAGGSLRLTCAASGSIFLWNAMGWYRQAPGTEREVVAAITWRGGSTYYADSVKGRFTISRDNEKYTVYLQMNSLKPEDTAVYYCAADSYDWMDYWGQGTQVTVSS	low polyreactivity
QVHLVESGGGLVQAGGSLRLTCAASGSILAYNAMGWYRQAPGKERELVAAIRLSGGSTYYADSVKGRFTISRDNAKNTVYLQMNSLKPEDTAVYYCARRYYRYDTRKYNYWGQGTKVTVSS	high polyreactivity
QVHLVESGGGLVQAGGTLRLSCAATGRTIYDNAMGWYRQAPGKESELVAVISRSGSTYYADSVKGRFTISRDNAKNSVYLQMNSLKPEDNAVYYCARRGVWGVTYSRLYHWGQGTQVTVSS	high polyreactivity
QVHLVESGGGLVQAGRSLRLSCAASGRIFSRYAMGGSRQAPGKERELVAVISRSGADTYYADSVKGRFTISRDNAKTTVYLQMNSLKPEDSAVYSCNAYSARRPHPMGYDYWGQCTQVTVSS	high polyreactivity
QVHLVESGGGLVQAGVSLRLSCAASGSTFDYYAMGWYIQAPGTERELVAGITGGGSTYYADSVKGRFTISRDNAKNTVYLQMNSLKPEDTAVYYCNAGPAQRYDYWGQGTQVTVSS	low polyreactivity
QVHLVESGGGLVQAGVSLRLSCAASGSTFRRNAMGWYRQEPGKERELVAAISTSGGTTYYADSVKGRFTISRDNAKNTVYLEMNSLKPEDTAVYYCNADVYVWNYKYYSSGQGTQVTVSS	high polyreactivity
QVHLVESGGRLVKAGGSLRLSCPASGYITTKYAMGWYRQAPGKEMELVAAIRYSGTSTYYADSVKGRFTISRDNATNTVYLQMNSLKPEDTAVYYCNTRRYVRTTKYDYWGQGTQVTVSS	high polyreactivity
QVHLVESGGRLVQAGGSLRLSSAASGSIFVKNAMGWYRQAPGKERELVATISSGGSTYYADSVKGRFTISRDNAKNTVYLQMNSLKPEDTAVYYSNTASYVSWYVHYYYWGVGTQVTVSS	low polyreactivity
QVHLVESGGVLLQAGGSLRLSCAASGFIFKWNAMGWYRQAPGKERELVAAISWHGGSTNYADSVKGRFTISRDNAKNTVYLQMNSLKPEDTAVYYCAKQQSPYYPSTLDYWGQGTQVTVSS	high polyreactivity
QVHLVESGGWLVQAGGSLRLSCAASGRTFHVYAMGWYRQAPGKERELVAAITWSGDSTYYADSVKGRFTISRDNAKNTVYLQMNSLKPEDTAVYYCAASQFWKYDYWGQGTQVTVSS	low polyreactivity
QVHLVESGRGLFQAGGSLRLSCAASGSIFGYNAMGWYRQAPGKERELVAAITWRGGSTYYADSVKGRFTISRDNAKNTVYLQMNSLKPEDTAVYDCAAYVYQEYDYWGQGTQVTVSS	high polyreactivity
QVHLVESGRGLFQAGGSLRLSCAASGYTFGPYDMGGYRQAPGKERELVAGITLSGGITYYADSVKGRFTISRDNAKNTVYLQMNSLKPQDTAVSYCAAAFYVSYSVIYEYWGHGTQVTVSS	high polyreactivity
QVHLVESGVGLVQAGGSLRLRCAASGRTLYYYAMGWYRQAPGKQSELVAAINSGGSTKYADSVKGRFTISRDNAKNTVYLQMHSLKPEDTAVYFCAARGYIRGGYYWGQGTQVTVSS	high polyreactivity
QVHLVESRGGLLQAGGSLRLSCAASVYIFYYYAMGWYRQAPGKEREFVAAITSGDSTYADSVKGRFTISRDNAKNTVYLQMYSLKPEDTAVYYCAAESYFFSPRTREKFDSWGQGTQVTVSS	low polyreactivity
QVHLVESRGGLVQAGGSLSLSCAASGITFYIYAMGWYRQAHGKERELVAAFTTSGDSTYYADSVKGRFTISRDNAKNTVYLQMNSLKPEDTAVYDCAAEYWYTYSWGQGTQVTVLS	low polyreactivity
QVHLVESVGGLVQAGGSLRLSCAASGSIFDVYTMGCYRQAPGKERELVAAINTGGGSKYYADSVKGRFTISRDNAKNTVYLQMNSLKPEDTAVYYCAASVYHYGPLYYWGQGTQVTVSS	low polyreactivity
QVHLVESVGGLVQAGGSLRLSSAASGIIFRSNAMGWYRQAPGKERELVAAISSRGSSTNYADSVKGRFTISRDNAKNTVYLQMNSLNPEDTAVYYCNARGSRVDQTESEYWGQGTQVTVSS	high polyreactivity
QVHLVESWGGLVQAGGSLRLSCAASGRTFWKYAMGWYRQAPWKDRVLVAAITASGARTYYADSVKGRFSISRDNGKNTVYLQMNSLKPEDTSVYYCNAGSVSDRQMDYWGQGTQVTVSS	low polyreactivity
QVHLVESWGGLVQAGGSLRLSCSASGITFDEYTIGWYRQAPGKERELVAAIDSDGSTTYADSVKVRFTISRDNAKNTVYLQMNILKPEDTEVYYCNAEHGDFCWHYLLYDYDYWGQGTQVTVSS	low polyreactivity
